This passage reports Kd results from PMC12576823.

For the assay, the target named is biotinylated cLDLR-TEV-Fc antigen (cleaved form of the low-density lipoprotein receptor) (UniProt P01130). The assay can be described thus: BLI; Octet RED384, room temperature; 20 nM biotinylated antigen-Fc immobilised on SA biosensor; monomeric Fab as analyte in PBS, 0.05% Tween-20, 0.2% BSA; 2:1 heterogeneous ligand model, global fit.
UniProt P01130, sequence (P01130 22-788): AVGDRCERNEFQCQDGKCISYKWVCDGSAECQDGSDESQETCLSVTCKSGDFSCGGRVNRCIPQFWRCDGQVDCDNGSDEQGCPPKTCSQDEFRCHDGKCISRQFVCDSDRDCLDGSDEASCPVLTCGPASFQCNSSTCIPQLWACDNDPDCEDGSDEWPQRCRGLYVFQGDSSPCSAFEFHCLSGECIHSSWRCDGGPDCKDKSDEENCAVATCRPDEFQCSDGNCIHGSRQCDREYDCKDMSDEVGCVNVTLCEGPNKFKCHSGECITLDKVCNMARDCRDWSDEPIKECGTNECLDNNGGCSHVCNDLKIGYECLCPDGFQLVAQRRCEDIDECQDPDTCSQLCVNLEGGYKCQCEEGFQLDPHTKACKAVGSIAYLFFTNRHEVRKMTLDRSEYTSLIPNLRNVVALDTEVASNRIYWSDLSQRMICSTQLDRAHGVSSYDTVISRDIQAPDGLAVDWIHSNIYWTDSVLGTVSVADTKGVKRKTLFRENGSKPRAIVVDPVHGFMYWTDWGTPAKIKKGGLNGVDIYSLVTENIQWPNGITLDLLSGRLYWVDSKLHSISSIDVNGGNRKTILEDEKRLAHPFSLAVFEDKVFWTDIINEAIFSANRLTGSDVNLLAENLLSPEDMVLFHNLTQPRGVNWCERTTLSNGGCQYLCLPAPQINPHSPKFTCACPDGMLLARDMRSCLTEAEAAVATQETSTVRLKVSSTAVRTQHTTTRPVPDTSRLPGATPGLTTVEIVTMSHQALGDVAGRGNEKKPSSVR

B1: 142F6 Fab (anti-LDLR) (Fab, V domains shown)
VH: EVQLVESGGGLVQPGGSLRLSCAASGFNFSSSSIHWVRQAPGKGLEWVASIYSSSGYTYYADSVKGRFTISADTSKNTAYLQMNSLRAEDTAVYYCARKWYYGAMDYWGQGTLVTVSS
VL: DIQMTQSPSSLSASVGDRVTITCRASQSVSSAVAWYQQKPGKAPKLLIYSASSLYSGVPSRFSGSRSGTDFTLTISSLQPEDFATYYCQQSSTIWTPLTFGQGTKVEIK
B1 showed a Kd of 16 nM. That is a double-digit nanomolar value.

B2: 142F1 Fab (anti-LDLR) (Fab, V domains shown)
VH: EVQLVESGGGLVQPGGSLRLSCAASGFNVYSSSIHWVRQAPGKGLEWVASISSYYGSTYYADSVKGRFTISADTSKNTAYLQMNSLRAEDTAVYYCARWYGYGYYHPYYFGRSYGFDYWGQGTLVTVSS
VL: DIQMTQSPSSLSASVGDRVTITCRASQSVSSAVAWYQQKPGKAPKLLIYSASSLYSGVPSRFSGSRSGTDFTLTISSLQPEDFATYYCQQEWQSLFTFGQGTKVEIK
B2 gave a Kd of 5.8 nM.
